{"source": "patent WO2021244601A1", "about": "(dated 2021)", "binders": {"B1": {"name": "CA304 (antibody, V domains shown)", "VH": "EVQLQQWGAGLLKPSETLSLTCAVYGGSFSGYYWSWIRQPPGKGLEWIGEVNHSGSTNYNPSLKSRVTISVDTSKNQLSLKLNSVTAADTAVYYCARGNTMVRGVIIPFEYWDKGTLVTVSS", "VL": "DIVMTQTPLSLPVTLGQPASISCRSSQSLVHSDGNTYLNWFQQRPGQSPRRLIYKVSNRDSGVPDRFSGSGAGTDFTLKISRVEAEDVGVYYCTQATQFPFTFGPGTKVDIKR"}, "B2": {"name": "CA555 (antibody, V domains shown)", "VH": "B1 VH", "VL": "not shown"}, "B3": {"name": "CA530 (antibody)", "heavy": "not shown", "light": "DIVMTQTPLSLPVTLGQPASISCRSSQSLVHSDGNTYLNWFQQRPGQSPRRLIYKVSNRDSGVPDRFSGSGSGTDFTLKISRVEAEDVGVYYCMQGTHWPRTFGQGTKVEIKRTVAAPSVFIFPPSDEQLKSGTASVVCLLNNFYPREAKVQWKVDNALQSGNSQESVTEQDSKDSTYSLSSTLTLSKADYEKHKVYACEVTHQGLSSPVTKSFNRGEC", "notes": "copies: 2 + 2"}, "B4": {"name": "IgG4 wild-type control antibody (antibody)", "heavy": "not shown", "light": "DIVMTQSPSSLSASVGDRVTITCRASQGIRNDLGWYQQKPGKAPKLLIYAASSLQSGVPSRFSGSGSGTDFTLTISSLQPEDFATYYCLQDYNYPRTFGQGTKVEIKRTVAAPSVFIFPPSDEQLKSGTASVVCLLNNFYPREAKVQWKVDNALQSGNSQESVTEQDSKDSTYSLSSTLTLSKADYEKHKVYACEVTHQGLSSPVTKSFNRGEC"}}, "key": {"[1]": {"molecular_target": "S protein of Wuhan-Hu-1 on pseudovirus (SARS-CoV-2 Wuhan-Hu-1 strain, UniProt P0DTC2 14-1273)", "test": "cell-based or functional assay"}, "[2]": {"molecular_target": "S protein of SARS-CoV-2 true virus, strain BetaCoV/Beijing/IMEBJ01/2020 (SARS-CoV-2 BetaCoV/Beijing/IMEBJ01/2020)", "test": "cell-based or functional assay"}, "[3]": {"molecular_target": "Spike S1+S2 protein of Wuhan-Hu-1 (Yiqiao Shenzhou / SB, 40589-V08B1) (SARS-CoV-2 Wuhan-Hu-1 strain, UniProt P0DTC2 16-1213)"}, "[4]": {"molecular_target": "T1, human CD64 (ACROBiosystems, catalog number FCA-H52H2) (human, UniProt P12314 16-288)", "T1 construct": "also called CD64 protein; human CD64 receptor", "T1 sequence (P12314 16-288 limits assumed)": "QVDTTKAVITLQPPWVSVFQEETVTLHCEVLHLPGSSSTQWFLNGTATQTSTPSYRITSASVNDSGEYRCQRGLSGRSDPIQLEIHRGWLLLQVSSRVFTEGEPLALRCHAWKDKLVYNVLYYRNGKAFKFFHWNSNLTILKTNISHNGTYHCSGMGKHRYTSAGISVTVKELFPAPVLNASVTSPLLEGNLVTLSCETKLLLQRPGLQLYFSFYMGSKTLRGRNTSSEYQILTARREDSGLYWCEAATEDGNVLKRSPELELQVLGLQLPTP", "test": "BLI, OctetRED 96, antibody on FAB2G sensor"}, "[5]": {"molecular_target": "T1, human CD64 (ACROBiosystems, catalog …)"}}}
{"binder": "B1", "values": [{"measurement": "IC50(nM), pseudovirus neutralisation on 293T-ACE2 cells (Luciferase RLU)", "setting": "[1]", "result": 0.2, "unit": "nM"}, {"measurement": "IC50, pseudovirus neutralisation (method as 3.15)", "setting": "[1]", "result": 0.821, "unit": "nM"}, {"measurement": "IC50, neutralisation of true virus on Vero cells (plaques)", "setting": "[2]", "result": 0.08, "unit": "µg/mL"}, {"measurement": "IC50", "setting": "[3]", "result": 0.176, "unit": "nM"}]}
{"binder": "B2", "values": [{"measurement": "IC50(nM), pseudovirus neutralisation on 293T-ACE2 cells (Luciferase RLU)", "setting": "[1]", "result": 0.98, "unit": "nM"}, {"measurement": "IC50, pseudovirus neutralisation (method as 3.15)", "setting": "[1]", "result": 0.328, "unit": "nM"}, {"measurement": "IC50", "setting": "[3]", "result": 0.187, "unit": "nM"}]}
{"binder": "B3", "values": [{"measurement": "binding result", "setting": "[4]", "result": "no binding"}, {"measurement": "IC50(nM), pseudovirus neutralisation on 293T-ACE2 cells (Luciferase RLU)", "setting": "[1]", "result": 0.11, "unit": "nM"}]}
{"binder": "B4", "values": [{"measurement": "Kd", "setting": "[5]", "result": 3.41, "unit": "nM"}]}
